Measurements taken from patent publication US20230138315A1 (JIANGSU HENGRUI MEDICINE, published 2023).
Substitutions are numbered along the chain they refer to. In names and notes the source's numbering stands.

T1: cynomolgus monkey ANGPTL3(17-460)-His (cynomolgus monkey, UniProt Q9Y5C1 17-460 (human entry), biotin-labelled in the ELISA and HTRF assays (sites not given))
T1 construct: also called full-length cynomolgus monkey ANGPTL3; Cyno ANGPTL3
T1 chain: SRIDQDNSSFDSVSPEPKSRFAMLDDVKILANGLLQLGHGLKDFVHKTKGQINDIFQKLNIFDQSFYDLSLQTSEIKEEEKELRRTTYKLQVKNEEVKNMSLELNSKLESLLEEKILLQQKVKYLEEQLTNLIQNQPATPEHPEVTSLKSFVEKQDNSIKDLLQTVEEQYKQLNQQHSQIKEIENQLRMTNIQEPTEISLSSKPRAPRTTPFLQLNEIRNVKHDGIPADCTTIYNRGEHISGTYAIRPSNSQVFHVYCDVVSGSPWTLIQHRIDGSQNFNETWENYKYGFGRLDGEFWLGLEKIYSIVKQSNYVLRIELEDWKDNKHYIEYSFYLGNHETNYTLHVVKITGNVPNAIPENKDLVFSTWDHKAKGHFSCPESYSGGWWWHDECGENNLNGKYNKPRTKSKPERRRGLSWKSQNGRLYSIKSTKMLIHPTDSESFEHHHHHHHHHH

T2: human-ANGPTL3 (R&D, 3829-AN) (human, UniProt Q9Y5C1 17-460)
T2 construct: Bought antigen used in the Biacore assay
T2 sequence (looked up): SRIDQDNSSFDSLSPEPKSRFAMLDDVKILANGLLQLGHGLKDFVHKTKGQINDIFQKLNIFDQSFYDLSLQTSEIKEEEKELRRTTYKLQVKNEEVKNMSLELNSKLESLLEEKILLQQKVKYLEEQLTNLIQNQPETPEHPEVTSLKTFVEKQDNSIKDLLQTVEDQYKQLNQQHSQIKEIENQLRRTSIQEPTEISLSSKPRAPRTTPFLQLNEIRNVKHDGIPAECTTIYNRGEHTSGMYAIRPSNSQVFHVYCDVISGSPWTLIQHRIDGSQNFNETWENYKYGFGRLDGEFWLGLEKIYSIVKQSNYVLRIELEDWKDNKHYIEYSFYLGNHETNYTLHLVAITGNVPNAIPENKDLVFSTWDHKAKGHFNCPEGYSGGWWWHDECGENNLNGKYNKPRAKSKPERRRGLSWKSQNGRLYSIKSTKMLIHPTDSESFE

T3: mouse ANGPTL3(17-455)-His (mouse, UniProt Q9R182 17-455, biotin-labelled in the ELISA and HTRF assays (sites not given))
T3 construct: also called full-length mouse ANGPTL3
T3 sequence: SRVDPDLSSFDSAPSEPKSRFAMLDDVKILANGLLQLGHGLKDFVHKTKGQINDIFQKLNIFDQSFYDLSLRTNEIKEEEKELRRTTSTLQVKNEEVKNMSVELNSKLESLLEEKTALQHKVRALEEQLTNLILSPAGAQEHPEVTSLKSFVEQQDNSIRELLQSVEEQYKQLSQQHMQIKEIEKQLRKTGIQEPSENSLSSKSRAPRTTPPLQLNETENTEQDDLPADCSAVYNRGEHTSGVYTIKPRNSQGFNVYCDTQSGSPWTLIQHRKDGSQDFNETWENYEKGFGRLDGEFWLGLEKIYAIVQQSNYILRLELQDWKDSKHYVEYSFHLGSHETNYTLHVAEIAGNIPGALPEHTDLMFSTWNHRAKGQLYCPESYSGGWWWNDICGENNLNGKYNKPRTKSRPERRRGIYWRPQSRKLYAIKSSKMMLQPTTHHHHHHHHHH

B1: P8G (antibody, human IgG4 S228P, kappa, V domains shown)
VH: QVQLVQSGAEVKKPGASVKVSCKASGYTFTSYDINWVRQAPGQGLEWVGLINPRDDSTSYAQKFQGRVTMTRDTSTSTMYMELSSLRSEDTAVYFCARDLGSIREVLYYGMDVWGQGTTVTVSS
VL: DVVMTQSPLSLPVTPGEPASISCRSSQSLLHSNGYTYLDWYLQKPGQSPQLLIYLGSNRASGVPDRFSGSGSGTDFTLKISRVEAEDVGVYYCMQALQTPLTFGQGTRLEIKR
notes: also called anti-ANGPTL3 antibody P8G; P8 (variable regions)
B2: P8BG (antibody, human IgG4 S228P, kappa, V domains shown)
VH: B1 VH with D55E
VL: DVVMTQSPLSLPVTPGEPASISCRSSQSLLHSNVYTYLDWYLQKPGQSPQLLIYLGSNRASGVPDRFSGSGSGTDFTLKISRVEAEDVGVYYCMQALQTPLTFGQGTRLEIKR
notes: also called anti-ANGPTL3 antibody P8BG; P8B (variable regions)
B3: P3G (antibody, human IgG4 S228P, kappa, V domains shown)
VH: QVQLVQSGAEVKKPGASVKVSCKSSGYTFTDYYLHWLRQAPGQGPEWMGWISPNSGGTSYAQKFQGRVTMTRDTSISTAYMELSSLRSDDTAVYYCARDIATLGNFFTYGMDVWGQGTTVTVSS
VL: DIQLTQSPSSLSASVGDRVTITCRASQGIRNDLGWYQQKPGKAPKLLIYAASSLQSGVPSRFSGSGSGTDFTLTISSLQPEDFATYYCQQSYSSWTFGQGTKVEIKR
notes: also called anti-ANGPTL3 antibody P3G; P3 (variable regions)

Molecular target: T1, cynomolgus monkey ANGPTL3(17-460)-His
Test: ELISA; biotin-labelled antigen on streptavidin-coated plate
Experimental: An anti-ANGPTL3 antibody inhibited or interfered with at least one activity of an ANGPTL3 protein by binding to the ANGPTL3 protein. The binding activity of the anti-ANGPTL3 antibody to the ANGPTL3 antigen was tested by an ELISA assay. The ANGPTL3 protein (human ANGPTL3(17-170)-mFc) was immobilized on a 96-well microplate by binding to the goat anti-mouse IgG coated on the microplate, and the binding activity of the antibody to the ANGPTL3 was determined according to the intensity of the signal after the antibody was added.
Streptavidin (Sigma, S4762-5MG) was diluted to a concentration of 3 μg/mL with PBS buffer (Shanghai BasalMedia, B320, pH 7.4), added to a 96-well microplate (Corning, CLS3590-100EA) at 50 μL/well, and then incubated in an incubator at 37° C. for 3 h or incubated at 4° C. overnight (16-18 h). After the liquid was discarded, a PBS-diluted 5% skim milk (BD, 232100) blocking solution was added at 250 μL/well, and the mixture was incubated in an incubator at 37° C. for 3 h or incubated at 4° C. overnight (16-18 h) for blocking. […] The mixture was incubated in an incubator at 37° C. for 2 h. After the incubation was finished, the reaction solution in the microplate was discarded. The plate was washed 3 times with PBST, and then a test antibody that was diluted with a sample diluent to different concentrations was added at […]. The mixture was incubated in an incubator at 37° C. for 2 h.

Binder	EC50
B1	2530 pM
B2	200 pM
B3	4560 pM

molecular target: T2, human-ANGPTL3 (R&D, 3829-AN); test: SPR (Biacore T200); antibody captured on Protein A chip, antigen in flow; 1:1 Langmuir fit
Excerpt: (§1) Biacore was used to determine the affinity of the test anti-ANGPTL3 antibodies for human, monkey, rat and mouse ANGPTL3, and the method is as follows:
(§2) Reaction signals were detected in real time using a Biacore T200 instrument to obtain association and dissociation curves. After each cycle of dissociation was completed, the biochip was washed and regenerated using a glycine-hydrochloric acid regeneration solution (Cat. # BR-1003-54, GE, pH 1.5). The running buffer for the experiment was 1×HBS-EP buffer (Cat. # BR-1001-88, GE). The data obtained from the experiment were fitted with the (1:1) Langmuir model using GE Biacore T200 evaluation software (version 3.0) to obtain affinity values.

Binder	Kd	koff	kon
B1	151 pM	0.000333 s⁻¹	2.2e+06 M⁻¹ s⁻¹
B2	45 pM	0.000276 s⁻¹	6.14e+06 M⁻¹ s⁻¹
B3	285 pM	0.000731 s⁻¹	2.56e+06 M⁻¹ s⁻¹

molecular target: T3, mouse ANGPTL3(17-455)-His; test: as above
Excerpt: as §1, §2

Binder	Kd	koff	kon
B1	355 pM	0.000345 s⁻¹	970000 M⁻¹ s⁻¹
B2	288 pM	0.00042 s⁻¹	1.46e+06 M⁻¹ s⁻¹
B3	843 pM	0.000827 s⁻¹	981000 M⁻¹ s⁻¹

Molecular target: T1, cynomolgus monkey ANGPTL3(17-460)-His
Test: as above
Excerpt: as §1, §2

Binder	Kd	koff	kon
B1	59.3 pM	0.000497 s⁻¹	8.37e+06 M⁻¹ s⁻¹
B2	76.9 pM	0.000398 s⁻¹	5.18e+06 M⁻¹ s⁻¹
B3	204 pM	0.000847 s⁻¹	4.15e+06 M⁻¹ s⁻¹
